# Laboratory results published in the FLAb antibody collection (doi:10.1101/2023.12.08.570889).
# Where a chain is given by its changes, count along the chain named.
# B1: unnamed (protein)
# chain 1: QVQLVQSGAEVKKPGASVKVSCKASGYTFTSSYINWVRQAPGQGLEWMGTINPVTGNTSYAQKFQGRVTMTRDTSISTAYMELSRLRSDDTAVYYCARGGYFDYWGQGTLVTVSS
# chain 2: QSALTQPASVSGSPGQSITISCTGTSSDVGSYNYVNWYQQHPGKAPKLMIYGVSKRPSGVSNRFSGSKSGNTASLTISGLQAEDEADYYCGTFAGGSYYGVFGGGTKLTVL
# B2: unnamed (protein)
# chain 1: B1 chain 1 with S32T
# chain 2: B1 chain 2
# B3: unnamed (protein)
# chain 1: B1 chain 1 with Y33G, G100N, F102M
# chain 2: B1 chain 2
# B4: unnamed (protein)
# chain 1: QVQLVQSGAEVKKPGASVKVSCKASGYIFSNYWIQWVRQAPGQGLEWMGEILPGSGSTEYTENFKDRVTMTRDTSTSTVYMELSSLRSEDTAVYYCARDRFDVASGSSFDFWGQGTLVTVSS
# chain 2: DIQMTQSPSSLSASVGDRVTITCGASENIYGALNWYQQKPGKAPKLLIYGATNLADGVPSRFSGSGSGTDFTLTISSLQPEDFATYYCQNVLNTPLTFGQGTKVEIK
# B5: unnamed (protein)
# chain 1: B4 chain 1 with D99Y, F101W, D102G, V103D, A104T, S105P, G106Y, S107I, S108Y, F111Y
# chain 2: B4 chain 2
# B6: unnamed (protein)
# chain 1: B4 chain 1 with D99Y, F101W, D102G, V103D, A104T, S105P, G106I, S107I, S108Y, F111Y
# chain 2: B4 chain 2
# B7: unnamed (protein)
# chain 1: B4 chain 1 with F101S, D102Y, V103G, A104D, G106S, S107W, S108A, F109L, F111A
# chain 2: B4 chain 2
# B8: unnamed (protein)
# chain 1: QVQLVQSGAEVKKPGASVKVSCKASGYIFSNYWIQWVRQAPGQGLEWMGEILPGSGSTEYTENFKDRVTMTRDTSTSTVYMELSSLRSEDTAVYYCARYYYGDTPFIYFDYWGQGTLVTVSS
# chain 2: B4 chain 2
# B9: unnamed (protein)
# chain 1: B8 chain 1 with Y101W, F106I
# chain 2: B4 chain 2
# B10: unnamed (protein)
# chain 1: B8 chain 1 with Y99L, Y100R, F106T
# chain 2: B4 chain 2
# B11: unnamed (protein)
# chain 1: B8 chain 1 with F106T
# chain 2: B4 chain 2
# B12: unnamed (protein)
# chain 1: B8 chain 1 with Y100R
# chain 2: B4 chain 2
# B13: unnamed (protein)
# chain 1: B8 chain 1 with Y99L, F106Y
# chain 2: B4 chain 2
# B14: unnamed (protein)
# chain 1: B8 chain 1 with Y99L, Y100R
# chain 2: B4 chain 2
# B15: unnamed (protein)
# chain 1: B8 chain 1 with Y101W, F106Y
# chain 2: B4 chain 2
# B16: unnamed (protein)
# chain 1: B8 chain 1 with Y100R, F106T
# chain 2: B4 chain 2
# B17: unnamed (protein)
# chain 1: B8 chain 1 with Y100R, F106Y
# chain 2: B4 chain 2
# B18: unnamed (protein)
# chain 1: B8 chain 1 with Y99L, Y100R, Y101W, F106I
# chain 2: B4 chain 2
# B19: unnamed (protein)
# chain 1: B8 chain 1 with Y99F, Y100R, F106I
# chain 2: B4 chain 2
# Biological target: ACVR2B, Q13705
# Experiment: Kd (SPR)
# Sequence of ACVR2B, Q13705 (Q13705 whole entry, looked up): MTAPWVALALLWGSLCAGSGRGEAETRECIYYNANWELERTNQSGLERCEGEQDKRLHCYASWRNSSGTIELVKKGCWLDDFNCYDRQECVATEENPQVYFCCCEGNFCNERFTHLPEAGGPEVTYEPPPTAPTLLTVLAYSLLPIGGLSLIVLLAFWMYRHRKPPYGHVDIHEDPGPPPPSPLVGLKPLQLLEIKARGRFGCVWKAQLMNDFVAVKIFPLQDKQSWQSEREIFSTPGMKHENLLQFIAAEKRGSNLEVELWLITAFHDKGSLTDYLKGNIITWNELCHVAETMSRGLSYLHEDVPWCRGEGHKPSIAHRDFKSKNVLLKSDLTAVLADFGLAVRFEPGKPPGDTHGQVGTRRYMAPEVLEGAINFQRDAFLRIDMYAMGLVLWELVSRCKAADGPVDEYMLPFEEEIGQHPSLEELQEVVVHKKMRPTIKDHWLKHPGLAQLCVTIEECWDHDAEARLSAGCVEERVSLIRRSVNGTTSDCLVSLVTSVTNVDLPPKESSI
row,Binder,Kd [µM]
1,B1,0.0103
2,B2,0.00787
3,B3,0.000581

# Biological target: C5, P01031
# Experiment: Kd (SPR)
row,Binder,Kd [µM]
1,B4,0.325
2,B5,0.85
3,B6,0.502
4,B7,3.98
5,B8,0.0963
6,B9,0.162
7,B10,0.469
8,B11,0.111
9,B12,0.385
10,B13,0.492
11,B14,0.937
12,B15,0.204
13,B16,0.689
14,B17,0.583
15,B18,0.749
16,B19,0.28
